We go through 1 molecule from patent publication US20250243261A1 (CZ BIOHUB SF, published 2025).

For experiment [1], the target named is SARS-CoV-2 Beta-variant Spike with two stabilizing proline substitutions (S-2P) (SARS-CoV-2 Beta variant). Put plainly: BLI, IgG.
Experiment [2] has as its target T1, SARS-CoV-2 Omicron-variant receptor binding domain (RBD) (SARS-CoV-2 Omicron variant).
T1 construct: domain: RBD
As to the kind of experiment: BLI, IgG.

B1: C143 WT IgG (antibody, V domains shown)
VH: EVQLVESGGGLVQPGGSLRLSCAASGFSVSTKYMTWVRQAPGKGLEWVSVLYSGGSDYYADSVKGRFTISRDNSKNALYLQMNSLRVEDTGVYYCARDSSEVRDHPGHPGRSVGAFDIWGQGTMVTVSS
VL: QSALTQPASVSGSPGQSITISCTGTSNDVGSYTLVSWYQQYPGKAPKLLIFEGTKRSSGISNRFSGSKSGNTASLTISGLQGEDEADYYCCSYAGASTFVFGGGTKLTVL
On to B1, for which the Kd was 0.45 µM in experiment [1] and 600 µM in experiment [2].
